The source of these data is PMC5253658, “SCIMP is a transmembrane non-TIR TLR adaptor that promotes proinflammatory cytokine production from macrophages” (Nature Communications, 2017).

A word on the Kd: it is the free concentration of one partner at which half of the binding sites on the other are occupied at equilibrium, for simple one-to-one binding. A higher Kd goes with a looser complex.

The target of experiment [1] is T1, His-TLR4-TIR (cytoplasmic TIR domain of mouse TLR4, amino acids 670-835) (mouse, UniProt Q9QUK6 670-835).
T1 construct: TLR4, mouse, cytoplasmic TIR domain, amino acids 670-835; codon-optimized gene from Genscript; subcloned into pET28a; also called His-tagged TLR4-TIR domain; recombinant TLR4-TIR; source: E. coli, purified (Ni-NTA)
T1 sequence (looked up): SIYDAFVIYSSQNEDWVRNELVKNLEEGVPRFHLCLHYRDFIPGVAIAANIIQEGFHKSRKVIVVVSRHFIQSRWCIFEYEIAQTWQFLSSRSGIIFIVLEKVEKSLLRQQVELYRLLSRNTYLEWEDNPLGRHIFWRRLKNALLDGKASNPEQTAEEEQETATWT
Nature of the experiment: other fluorescence titration; BODIPY FL-labelled SCIMP-T1 titrated with unlabelled TLR4-TIR; 25 °C, 30 mM Tris pH 7.4, 150 mM NaCl, 1 mM dithiothreitol; curve fit (Grafit). The note with it: both partners purified.

Experiment [2] addresses T1, His-TLR4-TIR (cytoplasmic TIR domain of …). Nature of the experiment: pull-down; GST-SCIMP (T1, T2 or T1 mutants) as bait, recombinant His-TLR4-TIR as prey; immunoblot against the His tag. The note with it: both partners purified. For orientation: A western blot detects proteins with antibodies after separation by electrophoresis.

B1: fluorescently labelled recombinant SCIMP-T1 (BODIPY FL) (domain or fragment)
chain: not shown
modifications: labelled with BODIPY FL Iodoacetamide
notes: SCIMP, mouse, T1, amino acids 29-150; also called labelled SCIMP; fluorescently labelled SCIMP-T1; source: E. coli, purified
With B1, binding in experiment [1] was characterised by a dissociation constant (Kd) of 212 nM.

B2: GST-SCIMP-T1 Y96F (domain or fragment)
chain: not shown
notes: SCIMP, mouse, T1, amino acids 29-150, Y96F; also called (unphosphorylated) Y96F SCIMP mutant; source: E. coli, purified (glutathione-Sepharose beads)
Regarding B2, the binding result in experiment [2] is given as “binds”.

B3: GST-SCIMP-T2 (C terminal region of murine SCIMP, amino acids 93-150) (domain or fragment)
chain: not shown
notes: SCIMP, mouse, C terminal region, amino acids 93-150; lacks the PRD; subcloned into pGEX6p-1; source: E. coli, purified (glutathione-Sepharose beads)
In the case of B3, in experiment [2], the binding result is “binds”.

B4: GST-SCIMP-T1 (entire intracellular region of murine SCIMP, amino acids 29-150) (domain or fragment)
chain: not shown
notes: subcloned into pGEX6p-1; also called SCIMP-GST; source: E. coli, purified (glutathione-Sepharose beads)
Take B4: the binding result in experiment [2] was “binds”.
